In US20150344570A1 (published 2015):

B1: GpH7-B3 variant E333_13S/GpL16-k0 (antibody, human IgG1, kappa)
heavy: not shown
light: DIVMTQSPLSLPVTPGEPASISCQASESLVHSNRNTYLHWYLQKPGQSPQLLIYKVSNRFSGVPDRFSGSGSGTDFTLKISRVEAEDVGVYYCSQNTHVPPTFGQGTKVEIERTVAAPSVFIFPPSDEQLKSGTASVVCLLNNFYPREAKVQWKVDNALQSGNSQESVTEQDSKDSTYSLSSTLTLSKADYEKHKVYACEVTHQGLSSPVTKSFNRGEC
notes: homodimerized IgG1, mutation in both H chains; also called Ho Ab
B2: GpH7-B3 variant G236_20W/GpL16-k0 (antibody, human IgG1, kappa)
heavy: not shown
light: B1 light
notes: as for B1
B3: GpH7-B3 variant I336_01G/GpL16-k0 (antibody, human IgG1, kappa)
heavy: not shown
light: B1 light
notes: as for B1
B4: GpH7-B3 variant I336_02A/GpL16-k0 (antibody, human IgG1, kappa)
heavy: not shown
light: B1 light
notes: as for B1
B5: GpH7-B3 variant I336_03V/GpL16-k0 (antibody, human IgG1, kappa)
heavy: not shown
light: B1 light
notes: as for B1
B6: GpH7-B3 variant I336_04F/GpL16-k0 (antibody, human IgG1, kappa)
heavy: not shown
light: B1 light
notes: as for B1
B7: GpH7-B3 variant I336_06M/GpL16-k0 (antibody, human IgG1, kappa)
heavy: not shown
light: B1 light
notes: as for B1
B8: GpH7-B3 variant I336_10E/GpL16-k0 (antibody, human IgG1, kappa)
heavy: not shown
light: B1 light
notes: as for B1
B9: GpH7-B3 variant I336_18N/GpL16-k0 (antibody, human IgG1, kappa)
heavy: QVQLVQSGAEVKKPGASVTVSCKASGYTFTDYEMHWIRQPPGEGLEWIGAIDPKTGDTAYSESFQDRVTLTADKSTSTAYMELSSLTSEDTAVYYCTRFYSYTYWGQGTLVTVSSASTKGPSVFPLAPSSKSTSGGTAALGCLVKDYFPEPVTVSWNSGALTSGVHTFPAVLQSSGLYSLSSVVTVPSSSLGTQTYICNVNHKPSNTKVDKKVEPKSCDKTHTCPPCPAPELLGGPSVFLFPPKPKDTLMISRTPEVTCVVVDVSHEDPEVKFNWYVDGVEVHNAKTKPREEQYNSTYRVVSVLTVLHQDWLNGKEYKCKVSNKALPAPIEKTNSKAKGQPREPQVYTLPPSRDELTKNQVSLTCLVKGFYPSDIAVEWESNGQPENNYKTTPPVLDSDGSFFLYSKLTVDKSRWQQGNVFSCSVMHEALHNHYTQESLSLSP
light: B1 light
notes: as for B1
B10: GpH7-B3 variant K326_14T/GpL16-k0 (antibody, human IgG1, kappa)
heavy: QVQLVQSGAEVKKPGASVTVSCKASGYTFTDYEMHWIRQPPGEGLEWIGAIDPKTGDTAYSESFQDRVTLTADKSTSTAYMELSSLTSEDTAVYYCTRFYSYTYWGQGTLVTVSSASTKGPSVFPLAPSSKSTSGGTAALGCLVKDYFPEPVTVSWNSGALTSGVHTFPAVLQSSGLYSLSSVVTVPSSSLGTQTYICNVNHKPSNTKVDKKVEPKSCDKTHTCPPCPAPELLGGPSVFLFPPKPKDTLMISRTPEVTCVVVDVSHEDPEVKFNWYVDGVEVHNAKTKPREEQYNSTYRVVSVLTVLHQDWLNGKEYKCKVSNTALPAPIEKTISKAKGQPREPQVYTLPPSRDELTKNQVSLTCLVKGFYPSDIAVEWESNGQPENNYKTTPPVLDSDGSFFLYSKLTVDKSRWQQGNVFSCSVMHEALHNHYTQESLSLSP
light: B1 light
notes: as for B1
B11: GpH7-B3 variant K326_15Y/GpL16-k0 (antibody, human IgG1, kappa)
heavy: not shown
light: B1 light
notes: as for B1
B12: GpH7-B3 variant K326_16H/GpL16-k0 (antibody, human IgG1, kappa)
heavy: not shown
light: B1 light
notes: as for B1
B13: GpH7-B3 variant K334_10E/GpL16-k0 (antibody, human IgG1, kappa)
heavy: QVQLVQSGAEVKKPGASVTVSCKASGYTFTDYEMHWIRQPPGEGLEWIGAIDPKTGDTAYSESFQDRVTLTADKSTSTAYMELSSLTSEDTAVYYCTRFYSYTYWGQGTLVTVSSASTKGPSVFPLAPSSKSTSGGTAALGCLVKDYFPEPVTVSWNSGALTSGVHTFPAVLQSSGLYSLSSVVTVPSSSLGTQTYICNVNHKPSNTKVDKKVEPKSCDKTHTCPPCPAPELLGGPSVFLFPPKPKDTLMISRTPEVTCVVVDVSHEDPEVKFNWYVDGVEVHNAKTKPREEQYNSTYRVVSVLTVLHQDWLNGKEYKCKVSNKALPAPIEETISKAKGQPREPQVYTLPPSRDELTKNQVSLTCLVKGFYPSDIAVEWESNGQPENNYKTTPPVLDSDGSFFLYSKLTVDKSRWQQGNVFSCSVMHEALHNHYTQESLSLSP
light: B1 light
notes: as for B1
B14: GpH7-B3 variant P271_03V/GpL16-k0 (antibody, human IgG1, kappa)
heavy: not shown
light: B1 light
notes: as for B1
B15: GpH7-B3 variant P271_04F/GpL16-k0 (antibody, human IgG1, kappa)
heavy: not shown
light: B1 light
notes: as for B1
B16: GpH7-B3 variant P271_06M/GpL16-k0 (antibody, human IgG1, kappa)
heavy: not shown
light: B1 light
notes: as for B1
B17: GpH7-B3 variant P271_07I/GpL16-k0 (antibody, human IgG1, kappa)
heavy: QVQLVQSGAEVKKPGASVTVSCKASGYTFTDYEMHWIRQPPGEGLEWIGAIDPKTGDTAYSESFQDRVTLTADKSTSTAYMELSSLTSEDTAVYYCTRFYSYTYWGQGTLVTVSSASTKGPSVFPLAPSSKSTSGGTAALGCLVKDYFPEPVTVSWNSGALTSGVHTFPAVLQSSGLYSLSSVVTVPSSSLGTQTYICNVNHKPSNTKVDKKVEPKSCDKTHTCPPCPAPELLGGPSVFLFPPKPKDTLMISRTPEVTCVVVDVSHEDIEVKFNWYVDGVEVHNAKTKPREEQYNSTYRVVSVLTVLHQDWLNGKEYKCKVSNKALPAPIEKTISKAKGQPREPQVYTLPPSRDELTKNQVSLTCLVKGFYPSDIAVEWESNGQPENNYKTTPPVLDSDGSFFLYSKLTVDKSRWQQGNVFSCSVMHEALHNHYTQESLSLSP
light: B1 light
notes: as for B1
B18: GpH7-B3 variant P271_11K/GpL16-k0 (antibody, human IgG1, kappa)
heavy: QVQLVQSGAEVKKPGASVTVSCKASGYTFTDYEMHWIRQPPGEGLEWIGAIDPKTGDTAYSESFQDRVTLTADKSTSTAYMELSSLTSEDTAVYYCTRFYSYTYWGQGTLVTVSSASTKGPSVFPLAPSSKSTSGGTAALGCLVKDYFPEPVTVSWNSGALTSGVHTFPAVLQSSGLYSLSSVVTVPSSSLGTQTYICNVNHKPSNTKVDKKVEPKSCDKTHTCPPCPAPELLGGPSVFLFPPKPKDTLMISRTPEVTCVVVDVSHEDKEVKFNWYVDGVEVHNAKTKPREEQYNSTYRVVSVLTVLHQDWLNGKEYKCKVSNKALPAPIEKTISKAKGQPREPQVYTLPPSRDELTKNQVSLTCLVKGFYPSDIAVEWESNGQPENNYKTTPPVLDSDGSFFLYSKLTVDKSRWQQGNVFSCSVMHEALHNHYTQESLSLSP
light: B1 light
notes: as for B1
B19: GpH7-B3 variant P271_12R/GpL16-k0 (antibody, human IgG1, kappa)
heavy: not shown
light: B1 light
notes: as for B1
B20: GpH7-B3 variant P271_13S/GpL16-k0 (antibody, human IgG1, kappa)
heavy: not shown
light: B1 light
notes: as for B1
B21: GpH7-B3 variant P271_20W/GpL16-k0 (antibody, human IgG1, kappa)
heavy: not shown
light: B1 light
notes: as for B1
B22: GpH7-B3 variant Q295_02A/GpL16-k0 (antibody, human IgG1, kappa)
heavy: not shown
light: B1 light
notes: as for B1
B23: GpH7-B3 variant Q295_03V/GpL16-k0 (antibody, human IgG1, kappa)
heavy: not shown
light: B1 light
notes: as for B1
B24: GpH7-B3 variant Q295_04F/GpL16-k0 (antibody, human IgG1, kappa)
heavy: not shown
light: B1 light
notes: as for B1
B25: GpH7-B3 variant Q295_05P/GpL16-k0 (antibody, human IgG1, kappa)
heavy: not shown
light: B1 light
notes: as for B1
B26: GpH7-B3 variant Q295_07I/GpL16-k0 (antibody, human IgG1, kappa)
heavy: not shown
light: B1 light
notes: as for B1
B27: GpH7-B3 variant Q295_13S/GpL16-k0 (antibody, human IgG1, kappa)
heavy: not shown
light: B1 light
notes: as for B1
B28: GpH7-B3 variant Q295_14T/GpL16-k0 (antibody, human IgG1, kappa)
heavy: not shown
light: B1 light
notes: as for B1
B29: GpH7-B3 variant Q295_18N/GpL16-k0 (antibody, human IgG1, kappa)
heavy: not shown
light: B1 light
notes: as for B1
B30: GpH7-B3 variant S239_01G/GpL16-k0 (antibody, human IgG1, kappa)
heavy: not shown
light: B1 light
notes: as for B1
B31: GpH7-B3 variant S239_09D/GpL16-k0 (antibody, human IgG1, kappa)
heavy: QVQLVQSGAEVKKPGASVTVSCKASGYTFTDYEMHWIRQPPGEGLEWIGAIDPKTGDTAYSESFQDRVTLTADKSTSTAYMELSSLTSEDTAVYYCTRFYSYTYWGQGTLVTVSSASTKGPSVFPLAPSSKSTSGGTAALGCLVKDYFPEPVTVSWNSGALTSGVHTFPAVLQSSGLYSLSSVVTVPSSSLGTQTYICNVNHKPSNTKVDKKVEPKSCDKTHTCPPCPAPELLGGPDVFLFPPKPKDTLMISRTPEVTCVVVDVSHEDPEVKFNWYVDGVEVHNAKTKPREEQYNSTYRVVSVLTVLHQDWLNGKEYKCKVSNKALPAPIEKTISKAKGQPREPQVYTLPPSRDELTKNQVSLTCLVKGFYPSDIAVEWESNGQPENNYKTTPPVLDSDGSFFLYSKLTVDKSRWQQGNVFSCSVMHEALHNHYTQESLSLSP
light: B1 light
notes: as for B1
B32: GpH7-B3 variant S267_01G/GpL16-k0 (antibody, human IgG1, kappa)
heavy: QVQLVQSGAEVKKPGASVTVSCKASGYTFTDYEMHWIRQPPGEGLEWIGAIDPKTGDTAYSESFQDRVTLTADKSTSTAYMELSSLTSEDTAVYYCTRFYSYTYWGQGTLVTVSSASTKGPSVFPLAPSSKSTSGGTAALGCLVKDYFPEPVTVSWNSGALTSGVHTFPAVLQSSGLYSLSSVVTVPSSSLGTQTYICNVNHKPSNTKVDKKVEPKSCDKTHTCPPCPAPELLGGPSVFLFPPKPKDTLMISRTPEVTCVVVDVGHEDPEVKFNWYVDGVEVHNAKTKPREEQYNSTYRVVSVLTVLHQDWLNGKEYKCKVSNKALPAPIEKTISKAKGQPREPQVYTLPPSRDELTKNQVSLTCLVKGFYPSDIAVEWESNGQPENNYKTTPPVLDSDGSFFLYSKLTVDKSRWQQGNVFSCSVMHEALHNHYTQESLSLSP
light: B1 light
notes: as for B1
B33: GpH7-B3 variant S267_02A/GpL16-k0 (antibody, human IgG1, kappa)
heavy: not shown
light: B1 light
notes: as for B1
B34: GpH7-B3 variant S267_03V/GpL16-k0 (antibody, human IgG1, kappa)
heavy: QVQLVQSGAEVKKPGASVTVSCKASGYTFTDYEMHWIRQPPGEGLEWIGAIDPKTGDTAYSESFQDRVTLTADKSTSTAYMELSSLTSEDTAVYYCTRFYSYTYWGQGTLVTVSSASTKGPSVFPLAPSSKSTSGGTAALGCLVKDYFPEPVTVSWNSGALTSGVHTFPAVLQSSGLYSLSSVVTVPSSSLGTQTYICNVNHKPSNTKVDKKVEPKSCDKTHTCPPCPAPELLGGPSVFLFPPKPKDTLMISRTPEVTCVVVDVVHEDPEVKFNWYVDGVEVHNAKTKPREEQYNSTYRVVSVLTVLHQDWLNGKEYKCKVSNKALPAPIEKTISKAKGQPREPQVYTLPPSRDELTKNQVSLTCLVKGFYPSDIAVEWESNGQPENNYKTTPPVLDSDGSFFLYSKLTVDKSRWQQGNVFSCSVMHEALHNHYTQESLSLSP
light: B1 light
notes: as for B1
B35: GpH7-B3 variant S267_09D/GpL16-k0 (antibody, human IgG1, kappa)
heavy: not shown
light: B1 light
notes: as for B1
B36: GpH7-B3 variant S298_03V/GpL16-k0 (antibody, human IgG1, kappa)
heavy: not shown
light: B1 light
notes: as for B1
B37: GpH7-B3 variant S298_07I/GpL16-k0 (antibody, human IgG1, kappa)
heavy: not shown
light: B1 light
notes: as for B1
B38: GpH7-B3 variant S298_08L/GpL16-k0 (antibody, human IgG1, kappa)
heavy: not shown
light: B1 light
notes: as for B1
B39: GpH7-B3 variant S298_10E/GpL16-k0 (antibody, human IgG1, kappa)
heavy: not shown
light: B1 light
notes: as for B1
B40: GpH7-B3 variant S298_14T/GpL16-k0 (antibody, human IgG1, kappa)
heavy: not shown
light: B1 light
notes: as for B1
B41: GpH7-B3 variant S298_15Y/GpL16-k0 (antibody, human IgG1, kappa)
heavy: not shown
light: B1 light
notes: as for B1
B42: GpH7-B3 variant S298_16H/GpL16-k0 (antibody, human IgG1, kappa)
heavy: not shown
light: B1 light
notes: as for B1
B43: GpH7-B3 variant S298_18N/GpL16-k0 (antibody, human IgG1, kappa)
heavy: not shown
light: B1 light
notes: as for B1
B44: GpH7-B3 variant S298_19Q/GpL16-k0 (antibody, human IgG1, kappa)
heavy: not shown
light: B1 light
notes: as for B1
B45: GpH7-B3 variant S324_02A/GpL16-k0 (antibody, human IgG1, kappa)
heavy: not shown
light: B1 light
notes: as for B1
B46: GpH7-B3 variant S324_03V/GpL16-k0 (antibody, human IgG1, kappa)
heavy: not shown
light: B1 light
notes: as for B1
B47: GpH7-B3 variant S324_08L/GpL16-k0 (antibody, human IgG1, kappa)
heavy: not shown
light: B1 light
notes: as for B1
B48: GpH7-B3 variant S324_14T/GpL16-k0 (antibody, human IgG1, kappa)
heavy: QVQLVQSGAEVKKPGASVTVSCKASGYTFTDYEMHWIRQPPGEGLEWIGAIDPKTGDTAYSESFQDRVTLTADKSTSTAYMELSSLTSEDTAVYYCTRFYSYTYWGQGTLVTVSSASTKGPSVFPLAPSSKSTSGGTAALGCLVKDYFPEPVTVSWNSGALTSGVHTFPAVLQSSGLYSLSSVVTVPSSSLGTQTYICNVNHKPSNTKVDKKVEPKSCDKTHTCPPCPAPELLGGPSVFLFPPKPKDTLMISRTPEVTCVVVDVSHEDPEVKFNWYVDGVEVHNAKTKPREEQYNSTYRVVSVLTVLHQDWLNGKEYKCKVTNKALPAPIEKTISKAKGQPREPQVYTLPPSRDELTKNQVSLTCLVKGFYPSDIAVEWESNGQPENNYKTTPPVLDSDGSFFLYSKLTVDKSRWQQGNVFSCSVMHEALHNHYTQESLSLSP
light: B1 light
notes: as for B1
B49: GpH7-B3 variant S324_19Q/GpL16-k0 (antibody, human IgG1, kappa)
heavy: not shown
light: B1 light
notes: as for B1
B50: GpH7-B3 variant S324_20W/GpL16-k0 (antibody, human IgG1, kappa)
heavy: not shown
light: B1 light
notes: as for B1
B51: GpH7-B3 variant S337_01G/GpL16-k0 (antibody, human IgG1, kappa)
heavy: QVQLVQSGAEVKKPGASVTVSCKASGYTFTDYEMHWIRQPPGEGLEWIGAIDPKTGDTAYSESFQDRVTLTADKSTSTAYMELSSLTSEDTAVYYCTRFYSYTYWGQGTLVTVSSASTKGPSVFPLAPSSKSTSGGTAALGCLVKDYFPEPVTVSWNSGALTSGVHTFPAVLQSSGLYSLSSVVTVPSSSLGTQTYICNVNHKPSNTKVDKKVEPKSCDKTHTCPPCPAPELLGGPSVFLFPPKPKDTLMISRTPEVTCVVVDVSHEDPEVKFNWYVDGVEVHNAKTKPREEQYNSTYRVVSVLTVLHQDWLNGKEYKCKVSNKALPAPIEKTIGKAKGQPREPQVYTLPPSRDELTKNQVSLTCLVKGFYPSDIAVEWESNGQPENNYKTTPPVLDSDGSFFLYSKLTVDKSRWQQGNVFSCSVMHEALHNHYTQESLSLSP
light: B1 light
notes: as for B1
B52: GpH7-B3 variant S337_02A/GpL16-k0 (antibody, human IgG1, kappa)
heavy: not shown
light: B1 light
notes: as for B1
B53: GpH7-B3 variant S337_03V/GpL16-k0 (antibody, human IgG1, kappa)
heavy: not shown
light: B1 light
notes: as for B1
B54: GpH7-A5/GpH7-B3 variant P271_02A/GpL16-k0 (antibody, human IgG1, kappa)
heavy 1: not shown
heavy 2: not shown
light: B1 light
notes: heterodimerized IgG1, mutation in one H chain; also called He Ab
B55: GpH7-A5/GpH7-B3 variant A327_09D/GpL16-k0 (antibody, human IgG1, kappa)
heavy 1: not shown
heavy 2: not shown
light: B1 light
notes: as for B54
B56: GpH7-A5/GpH7-B3 variant A330_08L/GpL16-k0 (antibody, human IgG1, kappa)
heavy 1: not shown
heavy 2: not shown
light: B1 light
notes: as for B54
B57: GpH7-A5/GpH7-B3 variant A330_09D/GpL16-k0 (antibody, human IgG1, kappa)
heavy 1: not shown
heavy 2: not shown
light: B1 light
notes: as for B54
B58: GpH7-A5/GpH7-B3 variant A330_14T/GpL16-k0 (antibody, human IgG1, kappa)
heavy 1: not shown
heavy 2: not shown
light: B1 light
notes: as for B54
B59: GpH7-A5/GpH7-B3 variant E269_04F/GpL16-k0 (antibody, human IgG1, kappa)
heavy 1: not shown
heavy 2: not shown
light: B1 light
notes: as for B54

target: T1, FcγRIa (human, UniProt P12314 16-292); test: SPR (Biacore), captured antibody, FcγRIa analyte; relative to HoCon Ab GpH7-B3/GpL16-k0 = 100
T1 construct: extracellular domain; soluble extracellular domain with C-terminal His tag, expressed in FreeStyle293 cells; also called FcgRI; FcgRIa
T1 sequence (P12314 16-292): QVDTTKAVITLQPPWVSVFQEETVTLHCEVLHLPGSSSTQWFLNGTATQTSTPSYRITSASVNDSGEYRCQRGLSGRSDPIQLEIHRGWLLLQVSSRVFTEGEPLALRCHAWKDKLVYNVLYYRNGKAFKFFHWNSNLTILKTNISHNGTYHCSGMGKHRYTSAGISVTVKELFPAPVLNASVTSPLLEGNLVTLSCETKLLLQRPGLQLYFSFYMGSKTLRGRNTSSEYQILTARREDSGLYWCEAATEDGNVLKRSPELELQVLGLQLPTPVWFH

First: B1
Second: B2
The Ho/Con_1a of the first is lower: 101 % of control for the first, 104 % of control for the second.

Compared with B3, B4 is lower in Ho/Con_1a: 104 % of control for the first, 103 % of control for the second.

Compared with B5, B6 is lower in Ho/Con_1a: 105 % of control for the first, 104 % of control for the second.

Going from B7 to B8, the Ho/Con_1a rises from 104 % of control to 107 % of control.

First: B9
Second: B10
The Ho/Con_1a of the first is higher: 104 % of control for the first, 103 % of control for the second.

B11 and B12 are the same in Ho/Con_1a: 101 % of control for the first, 101 % of control for the second.

Compared with B13, B14 is lower in Ho/Con_1a: 107 % of control for the first, 102 % of control for the second.

Going from B15 to B16, the Ho/Con_1a rises from 100 % of control to 102 % of control.

First: B17
Second: B18
The Ho/Con_1a of the first is higher: 102 % of control for the first, 101 % of control for the second.

B19 and B20 are the same in Ho/Con_1a: 101 % of control for the first, 101 % of control for the second.

Going from B21 to B22, the Ho/Con_1a rises from 102 % of control to 104 % of control.

Going from B23 to B24, the Ho/Con_1a falls from 102 % of control to 100 % of control.

B25 and B26 are the same in Ho/Con_1a: 101 % of control for the first, 101 % of control for the second.

Compared with B27, B28 is higher in Ho/Con_1a: 101 % of control for the first, 102 % of control for the second.

B29 and B30 are the same in Ho/Con_1a: 101 % of control for the first, 101 % of control for the second.

Compared with B31, B32 is higher in Ho/Con_1a: 101 % of control for the first, 102 % of control for the second.

Going from B33 to B34, the Ho/Con_1a falls from 108 % of control to 102 % of control.

B35 and B36 are the same in Ho/Con_1a: 106 % of control for the first, 106 % of control for the second.

Compared with B37, B38 is higher in Ho/Con_1a: 103 % of control for the first, 104 % of control for the second.

B39 and B40 are the same in Ho/Con_1a: 106 % of control for the first, 106 % of control for the second.

Going from B41 to B42, the Ho/Con_1a rises from 103 % of control to 107 % of control.

Compared with B43, B44 is higher in Ho/Con_1a: 104 % of control for the first, 105 % of control for the second.

B45 and B46 are the same in Ho/Con_1a: 103 % of control for the first, 103 % of control for the second.

Compared with B47, B48 is higher in Ho/Con_1a: 103 % of control for the first, 112 % of control for the second.

Compared with B49, B50 is higher in Ho/Con_1a: 111 % of control for the first, 112 % of control for the second.

Going from B51 to B52, the Ho/Con_1a rises from 102 % of control to 103 % of control.

For B53, the Ho/Con_1a was 105 % of control.

target: T1, FcγRIa; test: SPR (Biacore), captured antibody, FcγRIa analyte; relative to HeCon Ab GpH7-A5/GpH7-B3/GpL16-k0 = 100

Going from B54 to B55, the He/Con_1a falls from 104 % of control to 103 % of control.

Going from B56 to B57, the He/Con_1a rises from 107 % of control to 109 % of control.

First: B58
Second: B59
The He/Con_1a of the first is higher: 105 % of control for the first, 103 % of control for the second.
